We go through six molecules from patent US20250281533A1 (LG CHEM, published 2025).

T1: C subunit of human MUC1 expressed in HEK293T cells (HEK293T-v1) (human, UniProt P15941 1098-1255, limits assumed)
T1 construct: domain: C subunit of MUC1; also called MUC1-C
T1 sequence (looked up): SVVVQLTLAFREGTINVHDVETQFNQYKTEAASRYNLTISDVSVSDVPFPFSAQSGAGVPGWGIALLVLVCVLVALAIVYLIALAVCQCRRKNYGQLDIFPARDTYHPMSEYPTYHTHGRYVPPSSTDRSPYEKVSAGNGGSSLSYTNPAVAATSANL

B1: scFv 2447_3H08 (scFv)
scFv: EVQLLESGGGLVQPGRSLRLSCAASGFTFDDYAMHWVRQAPGKGLEWVSGISWNSGSIDYADSVKGRFTISRDNSKNTLYLQMNSLRAEDTAVYYCARDRSSGWYTGSFDYWGQGTLVTVSSGGGGSGGGGSGGGASSYELTQDPAVSVALGQTVRITCQGDSLRSYYASWYRQKPGQAPVLVIYGKNNRPSGIPDRFSGSSSGNTASLTIIGAQAEDEADYYCQSRDSSDNRVLFGGGTKVTVL
notes: also called #10
B2: scFv 2447_2H08 (scFv)
scFv: EVQLVQSGAEVKKPGASVKVSCKASGYTFTNYGISWVRQAPGQGLEWMGWISAYNGNTNYAQKLQGRVTMTTDTSTSTAYMELRSLRSDDTAVYYCARDPHILTGYYRGGWFDPWGQGTTVTVSSGGGGSGGGGSGGGASSYELTQDPAVSVALGQTVTITCQGDSLRTSYAGWLQQKPGQAPVLVLYGKTSRPSGIPDRFSGSTSGNTASLTITGAQAEDEAEYFCHSRDSNDNYLEVVFGGGTKLTVL
B3: scFv 2447_3B07 (scFv)
scFv: QVQLVESGGVVVQPGGSLRLSCAASGFTFDDYAMHWVRQAPGRGLEWVSLTSWDGGSTYYADSVKGRFTISRDNSKNSLYLQMNSLRAEDTALYYCAKDHSSGWYNGGMDVWGQGTMVTVSSGGGGSGGGGSGGGASSYELTQDPAVSVALGQTVRITCQGDSLRSYYASWYQQKPGQAPVLVIYGKNNRPSGIPDRFSGSSSGNTASLTITGAQAEDEADYYCNSRDSSGNHVVFGGGTKLTVL
B4: scFv 2447_3H02 (scFv)
scFv: EVQLLESGGGLVQPGRSLRLSCAASGFTFDDYAMHWVRQAPGKGLEWVSGISWDSGSIGYADSVKGRFTISRDNAKNSLYLQMNSLRAEDTALYYCAKDVSSGWYWYAFDIWGQGTLVTVSSGGGGSGGGGSGGGASSYELTQDPAVSVALGQTVRITCQGDILRSYYASWYQQKPGQAPVLVIYGKNNRPSGIPDRFSGSSSGNTASLTITGAQAEDEADYYCNSRDSSGNRVVFGGGTKLTVL
notes: also called #9
B5: scFv 2447_3C08 (scFv)
scFv: EVQLLESGGGLVQPGGSLRLSCAASGFTFDDYAMHWVRQAPGKGLEWVSGISWNSGSIGYADSVKGRFTISRDNAKNSLYLQMNSLRAEDTALYYCAKDRGSGYEGNYYGMDVWGQGTLVTVSSGGGGSGGGGSGGGASSYELTQDPAVSVALGQTVRITCQGDSLRSYYASWYQQKPGQAPVLVIYGKNNRPSGIPDRFSGTTSGNTASLTITGAQAEDEADYYCNSRDSSGNHYVFGTGTKVTVL
B6: scFv 2445_1F09 (scFv)
scFv: EVQLLETGGGLIQPGGSLRLSCAASGFTVSSNYMSWVRQAPGKGLEWVSVIYSGGSTYYADSVKGRFTISRDNSKNTLYLQMNSLRAEDTAVYYCARDRGWNHGMDVWGQGTLVTVSSGGGGSGGGGSGGGASQSGLTQPPSASGTPGQRVTISCSGGSSEVGSRYVSWYQQLPGTAPRLLIYKNDRRPSGVPDRFSGSKSGSSASLAISGLRSEDEADYYCAAWDDSLNGYVFGTGTKLTVL

One assay concerns the target T1, C subunit of human MUC1 expressed in …. The experiment in a line: flow cytometry (PE MFI, corrected to G03 at 380 ug/mL) on HEK293T-v1 cells expressing MUC1 C subunit. The protocol: (§1) The soluble scFv prepared in Example 1 was diluted 5-fold to prepare a total of 8 serial dilutions. Each serial dilution was 380 μg/mL, 76 μg/mL, 15.2 μg/mL, 3.04 μg/mL, 0.608 μg/mL, 0.1216 μg/mL, 0.02432 μg/mL, 0.004864 μg/mL. A buffer used in soluble scFv dilution and cell washing was PBS containing 2% FBS and 10 mM EDTA. Four kinds of cells were prepared at a density of 1×10⁶/mL, respectively, and put in a 96 well U-bottom cell culture plate at a density of 1×10⁵/100 μl/well, followed by centrifugation at 1500 RPM for 5 minutes. The soluble scFv prepared previously was treated in an amount of 50 μl/well. The cells were left at 4° C. for 1 hour. 150 μl/well of the cell washing buffer was added thereto and then mixed, followed by centrifugation at 1500 RPM for 5 minutes. The supernatant was discarded, and 200 μl/well of the cell washing buffer was added thereto and then mixed, followed by centrifugation at 1500 RPM for 5 minutes. A goat anti-human IgG Fc-biotin antibody (Invitrogen, A18821) was diluted 500-fold, and 50 μl/well thereof was treated. The cells were left at 4° C. for 20 minutes. 150 μl/well of the cell washing buffer was added thereto and then mixed, followed by centrifugation at 1500 RPM for 5 minutes. The supernatant was discarded, and 200 μl/well of the cell washing buffer was added thereto and then mixed, followed by centrifugation at 1500 RPM for 5 minutes. PE-Streptavidin (BD Pharmigen, 554061) was diluted 1000-fold, and 50 μl/well thereof was treated. The cells were left at 4° C. for 20 minutes. 150 μl/well of the cell washing buffer was added thereto and then mixed, followed by centrifugation at 1500 RPM for 5 minutes. The supernatant was discarded, and 200 μl/well of the cell washing buffer was added thereto and then mixed, followed by centrifugation at 1500 RPM for 5 minutes. 80 μl/well of the cell washing buffer was added and mixed, followed by flow cytometry.
The affinity of the soluble scFv to the mucin1-expressing cells was confirmed by PE MFI values from the results of the flow cytometry. Each cell line without soluble scFv was stained with another fluorescent antibody (Goat anti-human IgG Fc-biotin antibody, PE-Streptavidin), which was used as a negative control value, and each cell line was treated with G03 at a concentration of 380 μg/mL, which was used as a positive control value, and MFI value was corrected as follows: […]
On the technique in general: A flow cytometer gives signals particle by particle.
The EC50 is the concentration that produces a half-maximal response. Higher therefore signals lower potency in that assay. In turn, B1 displayed an EC50 of 2.57 µg/mL. On the same count and under the same terms, under B2 stands 21.7 µg/mL; under B3, 3.86 µg/mL. The same measure, in the same setting: with B4 the figure was 1.41 µg/mL.

Regarding B5, the EC50 turned out to be 1.38 µg/mL.

The target is the same in a further assay. The experiment in a line: flow cytometry (PE MFI, corrected to G03 at 380 ug/mL) on HEK293T-v1 cells expressing MUC1 C subunit; 293T-v1 cells. The protocol: as §1, with “PE-Streptavidin (BD Pharmigen, 554061) was diluted 1000-fold, and 50 μl/well thereof was treated. The cells were left at 4° C. for 20 minutes. 150 μl/well of the cell washing buffer was added thereto and then mixed, followed by centrifugation at 1500 RPM for 5 minutes. The supernatant was discarded, and 200 μl/well of the cell washing buffer was added thereto and then mixed, followed by centrifugation at 1500 RPM for 5 minutes. 80 μl/well of the cell washing buffer was added and mixed, followed by flow cytometry.” left out
Take B6: the EC50 was more than 380 µg/mL.
